The source of these data is US20200262873A1.

The assay addresses human IgG (IgG Sepharose 6 Fast Flow, GE Healthcare Biosciences Corp.) (human). The assay is described as follows: IgG Sepharose 6 Fast Flow column; bound at neutral pH, eluted at pH 3.0 then pH 2.5; peak area A/(A+B).

B1: Recombinant immunoglobulin κ light chain binding protein KBP12 (designed binder)
chain: KETPETPEEPKEEVTIKVNLIFADGRTQTATFKHRFEEATAKAYRYADLLAKVQGEYTADLEDGGYTINIKFAGKKETPETPEEPKEEVTIKVNLIFADGRTQTATFKHRFEEATAKAYRYADLLAKVQGEYTADLEDGGYTINIKFAGKKETPETPEEPKEEVTIKVNLIFADGRTQTATFKHRFEEATAKAYRYADLLAKVQGEYTADLEDGGYTINIKFAGKKETPETPEEPKEEVTIKVNLIFADGRTQTATFKHRFEEATAKAYRYADLLAKVQGEYTADLEDGGYTINIKFAGK
For B1, the Antibody dissociation rate (%) at pH 3.0 is 100%.

B2: Recombinant immunoglobulin κ light chain binding protein KBP13 (designed binder)
chain: KETPETPEEPKEEVTIKVNLIFADGRTQTATFKGRFEEATAKAYRYADLLAKVQGEHTADLEDGGYTINIKFAGKKETPETPEEPKEEVTIKVNLIFADGRTQTATFKGRFEEATAKAYRYADLLAKVQGEHTADLEDGGYTINIKFAGKKETPETPEEPKEEVTIKVNLIFADGRTQTATFKGRFEEATAKAYRYADLLAKVQGEHTADLEDGGYTINIKFAGKKETPETPEEPKEEVTIKVNLIFADGRTQTATFKGRFEEATAKAYRYADLLAKVQGEHTADLEDGGYTINIKFAGK
B2 had an Antibody dissociation rate (%) at pH 3.0 of 100%.

B3: Recombinant immunoglobulin κ light chain binding protein KBP14 (designed binder)
chain: KETPETPEEPKEEVTIKVNLIFADGRTQTATHKGRFEEATAKAYRYADLLAKVQGEYTADLEDGGYTINIKFAGKKETPETPEEPKEEVTIKVNLIFADGRTQTATHKGRFEEATAKAYRYADLLAKVQGEYTADLEDGGYTINIKFAGKKETPETPEEPKEEVTIKVNLIFADGRTQTATHKGRFEEATAKAYRYADLLAKVQGEYTADLEDGGYTINIKFAGKKETPETPEEPKEEVTIKVNLIFADGRTQTATHKGRFEEATAKAYRYADLLAKVQGEYTADLEDGGYTINIKFAGK
In turn, B3 gave an Antibody dissociation rate (%) at pH 3.0 of 100%.

B4: Recombinant type immunoglobulin κ light chain binding protein KBP0 (designed binder)
chain: KETPETPEEPKEEVTIKVNLIFADGKTQTATFKGTFEEATAEAYRYADLLAKVNGEYTADLEDGGYTINIKFAGKKETPETPEEPKEEVTIKVNLIFADGKTQTATFKGTFEEATAEAYRYADLLAKVNGEYTADLEDGGYTINIKFAGKKETPETPEEPKEEVTIKVNLIFADGKTQTATFKGTFEEATAEAYRYADLLAKVNGEYTADLEDGGYTINIKFAGKKETPETPEEPKEEVTIKVNLIFADGKTQTATFKGTFEEATAEAYRYADLLAKVNGEYTADLEDGGYTINIKFAGK
Take B4: the Antibody dissociation rate (%) at pH 3.0 was 50%.

B5: Recombinant immunoglobulin κ light chain binding protein KBP10 (designed binder)
chain: KETPETPEEPKEEVTIKVNLIFADGKTQTATFKGTFEEATAEAYRYADLLAKVNGEHTADLEDGGYTINIKFAGKKETPETPEEPKEEVTIKVNLIFADGKTQTATFKGTFEEATAEAYRYADLLAKVNGEHTADLEDGGYTINIKFAGKKETPETPEEPKEEVTIKVNLIFADGKTQTATFKGTFEEATAEAYRYADLLAKVNGEHTADLEDGGYTINIKFAGKKETPETPEEPKEEVTIKVNLIFADGKTQTATFKGTFEEATAEAYRYADLLAKVNGEHTADLEDGGYTINIKFAGK
B5 returned an Antibody dissociation rate (%) at pH 3.0 of 97%.

B6: Recombinant immunoglobulin κ light chain binding protein KBP11 (designed binder)
chain: KETPETPEEPKEEVTIKVNLIFADGKTQTATFKGTFEEATAEAYRYADLLAKVNGEYTADLEDGGYTINHKFAGKKETPETPEEPKEEVTIKVNLIFADGKTQTATFKGTFEEATAEAYRYADLLAKVNGEYTADLEDGGYTINHKFAGKKETPETPEEPKEEVTIKVNLIFADGKTQTATFKGTFEEATAEAYRYADLLAKVNGEYTADLEDGGYTINHKFAGKKETPETPEEPKEEVTIKVNLIFADGKTQTATFKGTFEEATAEAYRYADLLAKVNGEYTADLEDGGYTINHKFAGK
For the molecule B6, the Antibody dissociation rate (%) at pH 3.0 worked out at 99%.

B7: Recombinant immunoglobulin κ light chain binding protein KBP7 (designed binder)
chain: KETPETPEEPKEEVTIKVNLIFADGKTQTATFKHTFEEATAEAYRYADLLAKVNGEYTADLEDGGYTINIKFAGKKETPETPEEPKEEVTIKVNLIFADGKTQTATFKHTFEEATAEAYRYADLLAKVNGEYTADLEDGGYTINIKFAGKKETPETPEEPKEEVTIKVNLIFADGKTQTATFKHTFEEATAEAYRYADLLAKVNGEYTADLEDGGYTINIKFAGKKETPETPEEPKEEVTIKVNLIFADGKTQTATFKHTFEEATAEAYRYADLLAKVNGEYTADLEDGGYTINIKFAGK
In the case of B7, the Antibody dissociation rate (%) at pH 3.0 is 97%.

B8: Recombinant immunoglobulin κ light chain binding protein KBP4 (designed binder)
chain: KETPETPEEPKEEVTIKVNLIFADGKTHTATFKGTFEEATAEAYRYADLLAKVNGEYTADLEDGGYTINIKFAGKKETPETPEEPKEEVTIKVNLIFADGKTHTATFKGTFEEATAEAYRYADLLAKVNGEYTADLEDGGYTINIKFAGKKETPETPEEPKEEVTIKVNLIFADGKTHTATFKGTFEEATAEAYRYADLLAKVNGEYTADLEDGGYTINIKFAGKKETPETPEEPKEEVTIKVNLIFADGKTHTATFKGTFEEATAEAYRYADLLAKVNGEYTADLEDGGYTINIKFAGK
Molecule B8 showed an Antibody dissociation rate (%) at pH 3.0 of 95%.

B9: Recombinant immunoglobulin κ light chain binding protein KBP3 (designed binder)
chain: KETPETPEEPKEEVTIKVNHIFADGKTQTATFKGTFEEATAEAYRYADLLAKVNGEYTADLEDGGYTINIKFAGKKETPETPEEPKEEVTIKVNHIFADGKTQTATFKGTFEEATAEAYRYADLLAKVNGEYTADLEDGGYTINIKFAGKKETPETPEEPKEEVTIKVNHIFADGKTQTATFKGTFEEATAEAYRYADLLAKVNGEYTADLEDGGYTINIKFAGKKETPETPEEPKEEVTIKVNHIFADGKTQTATFKGTFEEATAEAYRYADLLAKVNGEYTADLEDGGYTINIKFAGK
As to B9, the Antibody dissociation rate (%) at pH 3.0 was found to be 95%.

B10: Recombinant immunoglobulin κ light chain binding protein KBP6 (designed binder)
chain: KETPETPEEPKEEVTIKVNLIFADGKTQTATHKGTFEEATAEAYRYADLLAKVNGEYTADLEDGGYTINIKFAGKKETPETPEEPKEEVTIKVNLIFADGKTQTATHKGTFEEATAEAYRYADLLAKVNGEYTADLEDGGYTINIKFAGKKETPETPEEPKEEVTIKVNLIFADGKTQTATHKGTFEEATAEAYRYADLLAKVNGEYTADLEDGGYTINIKFAGKKETPETPEEPKEEVTIKVNLIFADGKTQTATHKGTFEEATAEAYRYADLLAKVNGEYTADLEDGGYTINIKFAGK
Molecule B10 yielded an Antibody dissociation rate (%) at pH 3.0 of 92%.

B11: Recombinant immunoglobulin κ light chain binding protein KBP2 (designed binder)
chain: KETPETPEEPKEEVTIKHNLIFADGKTQTATFKGTFEEATAEAYRYADLLAKVNGEYTADLEDGGYTINIKFAGKKETPETPEEPKEEVTIKHNLIFADGKTQTATFKGTFEEATAEAYRYADLLAKVNGEYTADLEDGGYTINIKFAGKKETPETPEEPKEEVTIKHNLIFADGKTQTATFKGTFEEATAEAYRYADLLAKVNGEYTADLEDGGYTINIKFAGKKETPETPEEPKEEVTIKHNLIFADGKTQTATFKGTFEEATAEAYRYADLLAKVNGEYTADLEDGGYTINIKFAGK
Turning to B11, the Antibody dissociation rate (%) at pH 3.0 worked out at 98%.

B12: Recombinant immunoglobulin κ light chain binding protein KBP5 (designed binder)
chain: KETPETPEEPKEEVTIKVNLIFADGKTQTHTFKGTFEEATAEAYRYADLLAKVNGEYTADLEDGGYTINIKFAGKKETPETPEEPKEEVTIKVNLIFADGKTQTHTFKGTFEEATAEAYRYADLLAKVNGEYTADLEDGGYTINIKFAGKKETPETPEEPKEEVTIKVNLIFADGKTQTHTFKGTFEEATAEAYRYADLLAKVNGEYTADLEDGGYTINIKFAGKKETPETPEEPKEEVTIKVNLIFADGKTQTHTFKGTFEEATAEAYRYADLLAKVNGEYTADLEDGGYTINIKFAGK
Molecule B12 displayed an Antibody dissociation rate (%) at pH 3.0 of 92%.

B13: Recombinant immunoglobulin κ light chain binding protein KBP9 (designed binder)
chain: KETPETPEEPKEEVTIKVNLIFADGKTQTATFKGTFEEATAKAYRYADLLAKVNGEYTADLEDGGYTINIKFAGKKETPETPEEPKEEVTIKVNLIFADGKTQTATFKGTFEEATAKAYRYADLLAKVNGEYTADLEDGGYTINIKFAGKKETPETPEEPKEEVTIKVNLIFADGKTQTATFKGTFEEATAKAYRYADLLAKVNGEYTADLEDGGYTINIKFAGKKETPETPEEPKEEVTIKVNLIFADGKTQTATFKGTFEEATAKAYRYADLLAKVNGEYTADLEDGGYTINIKFAGK
Molecule B13 gave an Antibody dissociation rate (%) at pH 3.0 of 95%.

B14: Recombinant immunoglobulin κ light chain binding protein KBP8 (designed binder)
chain: KETPETPEEPKEEVTIKVNLIFADGKTQTATFKGTFEKATAEAYRYADLLAKVNGEYTADLEDGGYTINIKFAGKKETPETPEEPKEEVTIKVNLIFADGKTQTATFKGTFEKATAEAYRYADLLAKVNGEYTADLEDGGYTINIKFAGKKETPETPEEPKEEVTIKVNLIFADGKTQTATFKGTFEKATAEAYRYADLLAKVNGEYTADLEDGGYTINIKFAGKKETPETPEEPKEEVTIKVNLIFADGKTQTATFKGTFEKATAEAYRYADLLAKVNGEYTADLEDGGYTINIKFAGK
The molecule B14 displayed an Antibody dissociation rate (%) at pH 3.0 of 80%.

B15: Recombinant immunoglobulin κ light chain binding protein KBP1 (designed binder)
chain: KETPETPEEPKEEVTHKVNLIFADGKTQTATFKGTFEEATAEAYRYADLLAKVNGEYTADLEDGGYTINIKFAGKKETPETPEEPKEEVTHKVNLIFADGKTQTATFKGTFEEATAEAYRYADLLAKVNGEYTADLEDGGYTINIKFAGKKETPETPEEPKEEVTHKVNLIFADGKTQTATFKGTFEEATAEAYRYADLLAKVNGEYTADLEDGGYTINIKFAGKKETPETPEEPKEEVTHKVNLIFADGKTQTATFKGTFEEATAEAYRYADLLAKVNGEYTADLEDGGYTINIKFAGK
B15 had an Antibody dissociation rate (%) at pH 3.0 of 95%.
